Laboratory results reported in patent publication US20160207996A1 (ARGEN X N V, published 2016).

T1: hNav1.7-loopA3-llama Fc fusion (human)
T1 construct: also called hNav1.7-loopA3-llFc; loopA3-llamaFc chimera
T1 chain: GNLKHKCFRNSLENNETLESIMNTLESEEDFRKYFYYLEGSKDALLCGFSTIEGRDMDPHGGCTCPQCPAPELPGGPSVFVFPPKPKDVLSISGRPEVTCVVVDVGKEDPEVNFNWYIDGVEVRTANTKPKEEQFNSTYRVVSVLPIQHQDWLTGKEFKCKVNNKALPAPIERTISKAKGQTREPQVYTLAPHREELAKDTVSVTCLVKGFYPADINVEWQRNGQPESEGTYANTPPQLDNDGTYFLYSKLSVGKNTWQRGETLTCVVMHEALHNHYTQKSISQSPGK

T2: hNav1.7-loopB1-C1-D1-llama Fc (human)
T2 construct: whole entry: loops B1, C1, D1 joined by linkers, llama Fc; also called hNav1.7-loopB1-C1-D1-llfc
T2 chain: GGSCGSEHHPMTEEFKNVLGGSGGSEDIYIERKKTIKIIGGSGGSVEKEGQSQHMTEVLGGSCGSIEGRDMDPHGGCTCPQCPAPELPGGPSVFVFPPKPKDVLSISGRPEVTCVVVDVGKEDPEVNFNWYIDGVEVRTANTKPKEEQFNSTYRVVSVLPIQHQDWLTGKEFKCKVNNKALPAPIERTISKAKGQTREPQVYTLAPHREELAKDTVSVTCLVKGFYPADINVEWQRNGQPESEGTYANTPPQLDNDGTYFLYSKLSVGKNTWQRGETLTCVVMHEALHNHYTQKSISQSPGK

T3: RatB1-C1-D1-llFc (rat)
T3 construct: also called rat Nav1.7 loopB1-C1-D1 llamaFc chimera
T3 chain: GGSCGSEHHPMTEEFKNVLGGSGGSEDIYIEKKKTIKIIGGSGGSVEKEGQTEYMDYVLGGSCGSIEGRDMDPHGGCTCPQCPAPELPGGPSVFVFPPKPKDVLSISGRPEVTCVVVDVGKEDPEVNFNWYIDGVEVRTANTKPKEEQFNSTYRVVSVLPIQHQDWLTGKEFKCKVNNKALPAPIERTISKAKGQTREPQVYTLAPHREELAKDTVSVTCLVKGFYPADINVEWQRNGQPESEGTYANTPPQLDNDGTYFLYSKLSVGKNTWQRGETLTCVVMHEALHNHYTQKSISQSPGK

T4: hNav1.5-B1-C1-D1-llFc (human)
T4 construct: also called Nav1.5 extracellular loop B1-C1-D1 llamaFc chimera
T4 chain: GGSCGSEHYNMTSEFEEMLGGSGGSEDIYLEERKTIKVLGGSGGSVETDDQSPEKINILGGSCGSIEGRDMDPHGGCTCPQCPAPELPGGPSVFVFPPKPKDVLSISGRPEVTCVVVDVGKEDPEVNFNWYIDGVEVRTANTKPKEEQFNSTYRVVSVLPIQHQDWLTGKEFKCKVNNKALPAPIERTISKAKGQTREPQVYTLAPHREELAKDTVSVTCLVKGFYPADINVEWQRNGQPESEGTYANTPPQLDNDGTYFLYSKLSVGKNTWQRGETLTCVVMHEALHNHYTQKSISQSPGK


Columns and labels:
[1] = biological target: T1, hNav1.7-loopA3-llama Fc fusion; assay: Biacore SPR, antigen on CM5 chip, mAb in flow
Experimental: (§1) In a further experiment, affinity of the loopA3-binding mAbs was determined using Biacore Surface Plasmon Resonance (SPR) analysis.

[2] = biological target: T5, GST-tagged hNav1.7-loopA3 (human, UniProt Q15858 269-339); assay: Biacore SPR, antigen on CM5 chip, mAb in flow
T5 construct: monomeric GST-tagged peptide; also called hNav1.7-loopA3-GST; Nav1.7-loopA3-GST; not shown: GST tag
Experimental: as §1

[3] = biological target: T1, hNav1.7-loopA3-llama Fc fusion; assay: ELISA, coated hNav1.7-loopA3-llama Fc, mAb titrated
Experimental: (§2) mAbs originating from the loopA3-llama Fc immunization were assayed for their affinity for hNav1.7-loopA3. Therefore, a Maxisorp plate was coated with 10 ng/well of loopA3-llamaFc chimera and incubated overnight at 4° C. The next day, the plate was blocked with PBS+1% casein for 2 hours at RT. Subsequently a concentration gradient of antibodies was applied (range 0.25 pM-66 nM) for another hour. Antibody binding to loopA3 was detected using a HRP-conjugated anti-human Fc antibody (Abcam, Ab7499) (incubation 1 hour at RT, dilution 1/5000 in PBS+0.1% casein), followed by TMB addition and OD620 nm measurement. EC50 values were determined using GraphPad Prism software. For comparison purposes a known hNav1.7-loopA3 binding monoclonal antibody, UCB_932 (US2011/0135662), was tested.

[4] = biological target: human Nav1.7 (full length) (human) (UniProt Q15858); assay: cell-based or functional assay
[5] = biological target: T2, hNav1.7-loopB1-C1-D1-llama Fc; assay: ELISA, coated loop-B1-C1-D1-llama Fc 20 ng/well, mAb titrated
Experimental: as §2
In a next experiment, the binding affinity of the loop-specific mAbs was determined and compared to reference mAbs as described in US2011/0135662 (for loop A3: UCB_932, for loopB1-C1-D1: UCB_983, for loopC3: UCB_1066; US2011/0135662). Affinities were determined using an ELISA with a loop-coating of 10 ng/well (loopA3-llama Fc), 20 ng/well (loop-B1-C1-D1-llama Fc) or 50 ng/well (loopC3-llama Fc). The remainder of the experimental setup was identical to abovementioned binding ELISAs. Most of the mAbs show pM affinity for the respective hNav1.7 extracellular loop they are binding. […] The EC₅₀ for the reference mAbs could not be determined (nd) from the ELISA data available because the binding was too weak.

[6] = biological target: T1, hNav1.7-loopA3-llama Fc fusion; assay: binding ELISA on coated loop-llama Fc chimera (20 ng/well), OD620
Experimental: For all DNA-immunization derived mAbs the binding affinity for the various hNav1.7-loop-llama Fc chimeras was tested in a binding ELISA. Therefore, a Maxisorp plate (Nunc) was coated with 20 ng/well of hNav1.7-loopA3-llama Fc, hNav1.7-loopB1-C1-D1-llama Fc or hNav1.7-loopC3-llama Fc. Remainder of the ELISA setup is as described above. […] Only at very high concentration minor cross-reactivity is observed for some clones.

[7] = biological target: T3, RatB1-C1-D1-llFc; assay: binding ELISA; the panel prints no target, by paragraph 562 the coated rat loop B1-C1-D1-llama Fc
[8] = biological target: T4, hNav1.5-B1-C1-D1-llFc; assay: binding ELISA; the panel prints no target, by paragraph 288 and paragraph 555 the coated hNav1.5 loop B1-C1-D1-llama Fc
Source text: The therapeutic potency of an anti-hNav1.7 antibody will highly depend on the lack of binding to other Nay family members. Of particular interest is hNav1.5, which is expressed on cardiac muscle cells. As such, cross-reactive binding of hNav1.7 antibodies to hNav1.5 could lead to heart failure. To assay the specificity of the mAbs derived from DNA immunization for hNav1.7, the corresponding loopA3 and loopB1-C1-D1 sequences of hNav1.5 were cloned as llamaFc chimera and cross-reactivity was determined using a binding ELISA (FIG. 8). All clones, except clone 9A6 and 9H4, show no cross-reactivity to hNav1.5. In addition, cross reactivity for hNav1.2 was tested for the loopA3-binding clones 8A7 and 8B6 using hNav1.2 and hNav1.7 derived monomeric, GST-tagged loopA3 peptides (Abnova, H00006326-Q01 (hNav1.2) and H00006335-Q01 (hNav1.7)). Again, no cross-reactive binding was observed.

T5 sequence (Q15858 269-339 limits assumed): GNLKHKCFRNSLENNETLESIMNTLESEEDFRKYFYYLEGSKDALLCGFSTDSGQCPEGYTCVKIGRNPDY

Binder	Kd [1] [pM]	koff [1] [s⁻¹]	Kd [2] [pM]	koff [2] [s⁻¹]	EC50 [3] [pM]	% inhibition of inward current following P02 voltage protocol, 10 µg/ml [4] [%]	% inhibition of inward current following P02 voltage protocol, 25 µg/ml [4] [%]	% inhibition of inward current following P02 voltage protocol, 100 µg/ml [4] [%]	EC50 [5] [pM]	binding result [6]	binding result [7]	binding result [8]
4E8 (antibody, human IgG1, V domains shown) VH: EVQLQESGGGLVQPGGSLRLSCAASGFTFDDYAMSWVRQAPGKGLEWVSAISWNGGSTYYAESMKGRFTISRDNAKNTLYLQMNSLKSKDTAVYYCARRRYGLGSEYDYWGQGTQVTVSS VL: NFMLTQPSAVSVSLGQTARITCQGSSFGSSYAHWYQQMPGQAPILVIYRDSERPSGIPDRFSGSNSGGTATLTISGAQAEDEADYYCQSGSSSGNAHAVFGGGTHLTVLG	4280	0.000422	45200	0.00063	129	–	–	–	–	–	–	–
4H6 (antibody, human IgG1, V domains shown) VH: QVQLQESGPGLVKPSQTLSLTCTVSGGSITNYGWSWIRQPPGKGLEWMGVIAYDGSTYYSPSLKSRTSISRDTSKNQFSLQLSSVTPEDTAVYYCASAMVTTSSPWVKTFGAWGQGTQVTVSS VL: QAGLTQPPSVSGSPGKTVTISCAGTSSDVGYGNYVSWYQQLPGMAPKLLLYSVNKRASGIADRFSGSKSGNTASLTISGLQSEDEADYYCGCYDSSLSTPVFGGGTKLTVLG	120	4.48e-05	50.5	1.54e-05	67	–	–	–	–	–	–	–
6H8 (antibody, human IgG1, V domains shown) VH: EVQLVESGGGLVQPGGTLRLSCAASGFTFSNYWMHWVRQAPGKGLEWVSVIDRGGGGTRYADSVKGRFTISRDNAKNTLYLRMNSLKPEDTALYYCTRDRNGEYDYWGRGTQVTVSS VL: DIQMTQSPSSVTASAGEKVTINCKSSQSVLYSSNQKNYLAWYQQRLGQSPRLLIYWASTRESGVPDRFSGSGSTTDFTLTINNFQPEDAAVYYCQQGYSAPLTFGQGTKVELK	1.81	3.58e-06	0.609	6.9e-07	66	–	–	–	–	–	–	–
9A1 (antibody, V domains shown, chimeric llama-human, human IgG1 constant domains) VH: EVQLVQPGAELRNPGASVKVSCKASGDTFTDYYIHWVRQAPGQGLEWMGRIDPEDGGTKYTQKFQGRVTFTADTSTSTVYLELDSLRSEDTAVYYCVGDMDYWGKGTLVTVSS VL: QTVVTQEPSLSVSPGGTVTLTCGLSSGSVTFGNYPSWYQQTPGQAPRTLIYTTNSRHSGVPSRFSGSISGNKATLTISGAQPEDEADFYCALSRVSGTYGTVFGGGTHLTVL	–	–	–	–	–	6.4	24.3	37.5	330	binds	binds	no binding (tested: about 130 nM)
9A11 (antibody, human IgG1, V domains shown) VH: EVQLVQPGAEVRRPGAAVKVSCKASGFALISSYIDWVRQAPGQGLEWMGRIDPEDGGTSYAQKFQGRVTVTVDTATSTAYVELSSLRSDDTGVYFCMVGDSGYWGQGTQVTVSS VL: ATMLTQSPGSLSVVPGESASISCKASQSLVHTDGKTYLSWLLQKPGQSPQRLIYQVSTRGSGVPDRVTGSGSGTDFTLKISGVKAEDAGVYYCAQTTYYPPTFGQGTKVELK	–	–	–	–	–	16	49.4	62.3	91	–	–	no binding (tested: about 130 nM)
9F10 (antibody, human IgG1, V domains shown) VH: EVQLVQPGAEVRRPGAAVKVSCKASGFALISSYIDWVRQAPGQGLEWMGRIDPEDGGTSYAQKFQGRVTVTVDTATSTVYVELSSLRSDDTGVYFCMVGDSGYWGQGTQVTVSS VL: ATMLTQSPGSLSVGPGESASISCKAGQSLTHPNGKTYLSWLLQKPGQSPRRLIYETSNRDPGVPDRFTGSGSGTDFTLRIVGVTVEDAGVYYCAQTTYFPIAFGQGTKVELK	–	–	–	–	–	–	–	–	81	no binding (tested: about 66 nM)	binds	no binding (tested: about 130 nM)
9C12 (antibody, V domains shown, chimeric llama-human, human IgG1 constant domains) VH: EVQLVQPGAEVRRPGAAVKVSCKASGFALISSYIDWVRQAPGQGLEWMGRIDPEDGGTSYAQKFQGRVTVTVDTATSTVYVELSSLRSDDTGVYFCMVGDSGYWGQGTQVTVSS VL: ATMLTQSPASLSVVPGESASISCKASQSLVHSDGKTYLYWLLQKPGQSPQRLIYQVSNRGSGVPDRFTGSGSGTDFTLKISGVKAEDAGVYYCAQHTYYPPSFGSGTRLEIK	–	–	–	–	–	–	–	–	220	no binding (tested: about 66 nM)	binds	no binding (tested: about 130 nM)
4F7 (antibody, human IgG1, V domains shown) VH: QVQLQESGPGLVKPSQTLSLTCTVSGGSITTSFYAWSWIRQPPGKGLEWMGVIAYDGRTFYSPSLKSRTHISRDTSKNQFSLQLSSVTPEDTAVYYCARGGVVAWSYDYWGQGTQVTVSS VL: SYELTQSPSVSVALRQTAKITCGGNDIGSKSTQWYQQKAGQAPVLVIYADSRRPSGIPERFSGSNSGNTATLTISGAQAEDEADYYCQVWDSRADAAVFGGGTHLTVLG	84	2.68e-05	82.5	1.84e-05	57	–	–	–	–	–	–	–
